This note sets out measurements from article PMC5856539.

For this test, the target named is GFP-tagged Ska complex (Ska complex^Ska3-GFP) (human) (UniProt Q96BD8). As to the kind of experiment: SEC-MALS. (In general: Size exclusion chromatography separates by hydrodynamic size, large species first.)

One may read the stoichiometry N as a count of units in the complex or per binding partner. In turn, “GFP-tagged Ska complex (Ska complex^Ska3-GFP) (from UniProt Q96BD8;Q8WVK7;Q8IX90)” returned a stoichiometry N of 2.
